From paper PMC11443083
Substitutions are numbered along the chain they refer to.

Experiments:
[1] = biological target: T1, PAR1 receptor (1–425 amino acids) D256A (human) (UniProt P25116)
T1 sequence: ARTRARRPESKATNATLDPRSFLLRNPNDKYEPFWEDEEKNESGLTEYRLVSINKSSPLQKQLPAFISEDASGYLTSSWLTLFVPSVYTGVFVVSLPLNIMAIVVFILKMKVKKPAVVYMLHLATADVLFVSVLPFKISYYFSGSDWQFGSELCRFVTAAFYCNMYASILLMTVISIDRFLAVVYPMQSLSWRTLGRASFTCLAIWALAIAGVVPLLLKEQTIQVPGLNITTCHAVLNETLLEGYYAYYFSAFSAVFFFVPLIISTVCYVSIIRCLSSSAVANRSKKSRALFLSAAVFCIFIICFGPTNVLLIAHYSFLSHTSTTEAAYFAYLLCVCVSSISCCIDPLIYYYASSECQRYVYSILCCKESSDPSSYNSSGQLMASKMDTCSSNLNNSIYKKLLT

[2] = biological target: T2, PAR1 receptor (1–425 amino acids) Y350A (human) (UniProt P25116)
T2 sequence: T1 sequence with A235D, Y329A

B1: Synthesized TA peptide (SFLLRN) (peptide)
peptide: SFLLRN
NanoBiT Gαq–Gγ dissociation in HEK293T cells induced by the synthesized TA peptide; fold decrease of potency against WT PAR1 [1]: 33 fold | NanoBiT Gαq–Gγ dissociation in HEK293T cells induced by the synthesized TA peptide; fold decrease of potency against WT PAR1 [2]: 158 fold
